# Reference: paper PMC7924230, “Insights into the structure of mature streptavidin C1 from Streptomyces cinnamonensis reveal the self-binding of the extension C-terminal peptide to biotin-binding sites” (IUCrJ, 2021)
# T1: streptavidin C1 (Streptomyces virginiae, UniProt A0ABQ3NKM7)
# T1 construct: ORF Met1-Glu191 in pET-21a, E. coli BL21; His-tagged (C1-His); mature N-terminus 34-SADPR-38; homotetramer about 76 kDa
# T1 sequence (A0ABQ3NKM7 26-191 limits assumed): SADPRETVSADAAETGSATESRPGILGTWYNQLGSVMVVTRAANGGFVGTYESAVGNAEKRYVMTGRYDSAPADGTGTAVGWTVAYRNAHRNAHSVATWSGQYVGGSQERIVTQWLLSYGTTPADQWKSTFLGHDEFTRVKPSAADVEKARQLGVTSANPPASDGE
# Assays:
# [1] = biological target: streptavidin C2 from Streptomyces cinnamonensis strain KPP02129, recombinant (Streptomyces cinnamonensis); experiment: SEC-MALS; Superdex 200 10/300 GL, 20 mM Tris-HCl pH 8.0, 100 mM NaCl, 2 mM DTT; 1-2 mg/ml, 0.25 ml injected, 0.8 ml/min
# [2] = biological target: streptavidin C2 from Streptomyces cinnamonensis strain KPP02129, recombinant (Streptomyces cinnamonensis); experiment: SDS-PAGE (oligomer bands); purified protein in 1x SDS sample buffer (1% SDS, with or without β-mercaptoethanol), incubated 20 min at 25-100°C, with or without biotin
# [3] = biological target: streptavidin C1 from Streptomyces cinnamonensis strain KPP02129, recombinant mature form (Streptomyces cinnamonensis); experiment: SEC-MALS; Superdex 200 10/300 GL, 20 mM Tris-HCl pH 8.0, 100 mM NaCl, 2 mM DTT; 1-2 mg/ml, 0.25 ml injected, 0.8 ml/min
# [4] = biological target: streptavidin C1 from Streptomyces cinnamonensis strain KPP02129, recombinant mature form (Streptomyces cinnamonensis); experiment: SDS-PAGE (oligomer bands); purified protein in 1x SDS sample buffer (1% SDS, with or without β-mercaptoethanol), incubated 20 min at 25-100°C, with or without biotin
# [5] = biological target: T1, streptavidin C1; experiment: microscale thermophoresis (MST), His-tag-labelled protein; format: binding
# [6] = biological target: T2, streptavidin C2 (Streptomyces virginiae, UniProt A0ABQ3NKS0); experiment: as above; format: binding; details: read-out: apparent K d
# T2 construct: gene Scinn_28310; cloned in pET-21a, E. coli BL21; His-tagged (C2-His); homotetramer about 68 kDa
# [7] = biological target: T3, avidin (Gallus gallus, UniProt P02701); experiment: thermal unfolding, intrinsic fluorescence […] nm (Tycho NT.[…]); format: binding; details: PBS-T, 1 mg/ml protein, 4 mg/ml D-biotin
# T3 construct: gene AVD; homotetramer
# [8] = biological target: C-terminal deletion mutant ΔC1 of streptavidin C1 (amino acids 1-161) (Streptomyces cinnamonensis); experiment: MST; Monolith NT.115; 200 nM His-tag-labelled (RED-tris-NTA) ΔC1-His or ΔC2-His, unlabelled peptide 2.4414-80 000 nM, PBS with 0.05% Tween 20, 10 min at room temperature, measured at 25°C, 40% LED power, 60% MST power, triplicate
# [9] = biological target: C-terminal deletion mutant ΔC2 of streptavidin C1 (amino acids 1-158) (Streptomyces cinnamonensis); experiment: as above
# T3 sequence (P02701 25-152): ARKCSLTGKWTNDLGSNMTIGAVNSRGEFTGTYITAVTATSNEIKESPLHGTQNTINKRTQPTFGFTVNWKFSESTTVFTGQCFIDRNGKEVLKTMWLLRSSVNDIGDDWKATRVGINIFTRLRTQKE
molecule,measurement,setting,value
"streptavidin C2 from Streptomyces cinnamonensis strain KPP02129, recombinant (natural protein)",stoichiometry N,[1],4
same,stoichiometry N,[2],4
"streptavidin C1 from Streptomyces cinnamonensis strain KPP02129, recombinant mature form (natural protein)",stoichiometry N,[3],4
same,stoichiometry N,[4],4
O=C(O)CCCC[C@@H]1SC[C@@H]2NC(=O)N[C@@H]21 [D-biotin],Kd,[5],~3.06 pM
same,Kd,[6],3.06 ± 0.8 pM
same,T i,[7],streptavidin (green) and avidin (brown) with or without biotin from differential scanning fluorimetry
SAADVEKARQLGVTSANPPASDGE [C-Lid_ECP peptide of streptavidin C1],Kd,[8],21 µM
same,Kd,[9],7.3 µM
LGVTSANPPASDGE [ECP peptide (extension C-terminal peptide) of streptavidin C1],Kd,[8],0.049 µM
same,Kd,[9],0.11 µM
